Laboratory results from patent US20260070974A1 (NONA BIOSCIENCES SUZHOU, published 2026).
Several values for one entry are separate records, joined by “and”; a condition that tells them apart may be missing. Equal entries are not always repeated.

T1: human Siglec-2-his protein (Acrobiosystems, Cat CD2-H52H8) (human, UniProt P20273 20-687)
T1 construct: Bought protein; not shown: his tag
T1 sequence (looked up): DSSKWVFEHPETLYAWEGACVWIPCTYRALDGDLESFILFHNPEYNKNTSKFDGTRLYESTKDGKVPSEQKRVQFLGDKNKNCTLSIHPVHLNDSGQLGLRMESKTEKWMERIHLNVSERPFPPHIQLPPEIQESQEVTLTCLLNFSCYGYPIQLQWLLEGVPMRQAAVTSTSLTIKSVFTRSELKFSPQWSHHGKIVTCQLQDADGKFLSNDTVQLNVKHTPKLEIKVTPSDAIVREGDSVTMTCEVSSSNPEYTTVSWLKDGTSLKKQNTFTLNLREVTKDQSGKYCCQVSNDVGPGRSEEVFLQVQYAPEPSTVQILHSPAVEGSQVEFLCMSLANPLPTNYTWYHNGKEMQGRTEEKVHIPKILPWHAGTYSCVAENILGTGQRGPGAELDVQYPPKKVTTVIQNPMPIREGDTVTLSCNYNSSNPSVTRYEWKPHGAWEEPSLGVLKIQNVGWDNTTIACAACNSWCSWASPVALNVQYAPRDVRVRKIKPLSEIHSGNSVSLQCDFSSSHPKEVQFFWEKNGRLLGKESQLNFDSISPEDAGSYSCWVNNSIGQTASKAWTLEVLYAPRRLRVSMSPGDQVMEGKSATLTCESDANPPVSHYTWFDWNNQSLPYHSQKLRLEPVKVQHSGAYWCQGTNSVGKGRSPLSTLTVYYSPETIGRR

T2: human Siglec-10-his protein (Acrobiosystems, Cat SIO-H52H9) (human, UniProt Q96LC7 17-546, limits assumed)
T2 construct: Bought protein; not shown: his tag
T2 sequence (looked up): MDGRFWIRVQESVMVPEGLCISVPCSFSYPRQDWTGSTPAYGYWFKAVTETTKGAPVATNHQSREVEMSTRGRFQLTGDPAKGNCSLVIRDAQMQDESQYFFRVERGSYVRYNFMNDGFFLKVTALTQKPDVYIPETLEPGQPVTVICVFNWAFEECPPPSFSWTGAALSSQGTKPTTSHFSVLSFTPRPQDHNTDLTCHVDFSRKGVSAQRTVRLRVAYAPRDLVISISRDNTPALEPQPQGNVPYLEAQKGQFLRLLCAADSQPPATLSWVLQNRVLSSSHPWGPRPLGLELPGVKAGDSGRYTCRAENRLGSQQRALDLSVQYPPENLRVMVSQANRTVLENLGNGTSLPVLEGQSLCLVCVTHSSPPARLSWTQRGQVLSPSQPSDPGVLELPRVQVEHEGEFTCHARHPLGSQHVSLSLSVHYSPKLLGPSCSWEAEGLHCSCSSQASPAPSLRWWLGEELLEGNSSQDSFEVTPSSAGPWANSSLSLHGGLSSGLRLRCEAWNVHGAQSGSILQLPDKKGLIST

T3: human Siglec-15 on CHO-K1/human Siglec-15 cells (KYinno, Beijing) (human, UniProt Q6ZMC9 20-328)
T3 sequence: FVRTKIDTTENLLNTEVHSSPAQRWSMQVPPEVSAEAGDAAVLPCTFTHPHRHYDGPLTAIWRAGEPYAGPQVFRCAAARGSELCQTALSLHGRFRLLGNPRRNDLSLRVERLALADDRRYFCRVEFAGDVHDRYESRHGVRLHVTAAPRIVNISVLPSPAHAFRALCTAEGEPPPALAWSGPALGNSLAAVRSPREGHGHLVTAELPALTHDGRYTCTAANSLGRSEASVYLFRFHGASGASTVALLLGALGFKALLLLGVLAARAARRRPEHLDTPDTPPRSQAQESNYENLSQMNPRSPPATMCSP


Experiments:
[1] = target: T1, human Siglec-2-his protein …; assay: ELISA on coated human Siglec-2-his, antibody at 100 nM and 10 nM, goat anti-human IgG-HRP, OD450
Method: (§1) Human Siglec-15 ECD-his protein (Acrobiosystems, Cat SG5-H52H3), human Siglec-2-his protein (Acrobiosystems, Cat CD2-H52H8), human Siglec-4a-his protein (Acrobiosystems, Cat MAG-H52H8), human Siglec-3-his protein (Acrobiosystems, Cat CD3-H5226), human Siglec-10-his protein (Acrobiosystems, Cat SIO-H52H9), and human PD-L1/B7-H1-his protein (Acrobiosystems, Cat PD1-H5229), each at 1 μg/mL and dissolved in PBS, were each added to an ELISA plate at 100 μL/well for coating and the plate was incubated overnight at 4° C. The ELISA plate was then blocked with PBST (PBS+0.05% Tween 20) containing 2% BSA at 200 μL/well and incubated at 37° C. for 1 h. The ELISA plate was washed 4 times with PBST. The anti-Siglec-15 antibody diluted in a gradient (concentrations: 100 nM and 10 nM) was added to the ELISA plate at 100 μL/well and the plate was incubated at 37° C. for 1 h. The ELISA plate was washed 4 times with PBST. The goat anti-human IgG (H+L)-HRP (1:5000, Jackson, Cat 109-035-088) was added at 100 μL/well and the plate was incubated at 37° C. for 1 h. The ELISA plate was washed 4 times with PBST. The TMB substrate (Biopanda, Cat TMB-S-003) was added at 100 μL/well, and the plate was incubated at room temperature for 5 min, and then the stop buffer (Solarbio, Cat #: C1058) was added at 100 μL/well to stop the reaction.

[2] = target: T2, human Siglec-10-his protein …; assay: ELISA on coated human Siglec-10-his, antibody at 100 nM and 10 nM, goat anti-human IgG-HRP, OD450
Method: as §1

[3] = target: T3, human Siglec-15 on CHO-K1/human …; assay: flow cytometry on CHO-K1/human Siglec-15 cells
Method: CHO-K1/human Siglec-15 cells (KYinno, Beijing) were adjusted to a density of 1×10⁶/mL with PBS, and the cell suspension was added to a 96-well V-bottom plate at 100 μL/well. The 96-well V-bottom plate was centrifuged at 1000 rpm for 5 min and washed once with PBS+2% FBS. The cells were resuspended in […] of antibody diluted in a gradient (5-fold dilution, starting concentration: 500 nM) and incubated at 4° C. for 1 h, and PR300066 and hIgG1 were used as positive control and negative control, respectively. After 1 h, the cells were washed twice with PBS+2% FBS. The cells were incubated with 100 μL of Alexa Fluor 488 goat anti-human IgG (Jackson, Cat #: 109-545-098) at 4° C. for 1 h in the dark and then washed twice with PBS+2% FBS. The cells were then resuspended in 200 μL of PBS+2% FBS. The fluorescence intensity of the cells was analyzed using a BD FACSCanto™ II flow cytometer.

[4] = target: T4, human PD-L1/B7-H1-his protein (Acrobiosystems, Cat PD1-H5229) (human, UniProt Q9NZQ7 19-238); assay: ELISA on coated human PD-L1/B7-H1-his, antibody at 100 nM and 10 nM, goat anti-human IgG-HRP, OD450
T4 construct: Bought protein; not shown: his tag
Method: as §1

T4 sequence (Q9NZQ7 19-238 limits assumed): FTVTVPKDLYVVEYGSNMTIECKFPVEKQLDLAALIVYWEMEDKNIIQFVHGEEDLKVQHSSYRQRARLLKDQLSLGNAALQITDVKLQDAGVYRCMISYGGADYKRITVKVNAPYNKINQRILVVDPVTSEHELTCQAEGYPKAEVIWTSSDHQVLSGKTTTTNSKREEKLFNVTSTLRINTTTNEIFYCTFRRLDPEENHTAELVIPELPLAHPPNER

Row | binding result [1] | binding result [2] | EC50 [3] | Maximum (MFI) [3] | binding result [4] | Binder
1 | no binding (tested: 100 nM) | no binding (tested: 100 nM) | 0.553 nM | 20300 MFI | no binding (tested: 100 nM) | PR301285 (antibody, human IgG1, kappa, V domains shown) VH: QVQLQESGPGLVKPSETLSLTCTVSGGSMISYYWSWLRQPPGKGLEWIGYIYYSGNTNYNPSLKSRITIAVDTSKNQFSLKLNSVTAADTAVYYCARERELHPYYFDYWGQGTLVTVSS VL: DIQLTQSPSFLSASVGDRVTITCRASQGIDNYLAWYQQKPGKAPKVLIYAASTLQSGVPSRFSGSGSGTEFTLTISSLQPEDFATYYCQQLNSYPLTFGGGTKVEIKR
2 | no binding (tested: 100 nM) | no binding (tested: 100 nM) | 3.66 nM and 2.2 nM and 1.64 nM |  | no binding (tested: 100 nM) | PR300066 (Tab) (antibody, human IgG1, kappa, V domains shown, variable region from clone 5G12 of WO 2018/057735A1, on human IgG1/kappa constant regions; also called 5G12) VH: QVQLQQPGAELVKPGASVKMSCKASGYTFTSYWITWVIQRPGQGLEWIGDIYCGSDTMHYNEKFKNKATLTVDTSSSTAYMQLSSLTSEDSAVYYCARWWDYGSSYDYFDYWGQGTTLTVSS VL: DIKMTQSPSSMYASLGERVTITCKASQDINSYLSWFQQKPGKSPKTLIYRANRLVDGVPSRFSGSGSGQDYSLTISSLEYEDMGIYYCLQYDEFPYTFGGGTKLEIKR
3 | no binding (tested: 100 nM) | no binding (tested: 100 nM) | 1.04 nM | 29200 MFI | no binding (tested: 100 nM) | PR301289 (antibody, human IgG1, kappa, V domains shown, Parent of the PTM variants PR301289-1 and -2) VH: QVQLVQSGAEVKKPGASVKVSCRASGYTFTSYDINWVRQATGQGLEWMGWMNPHSGDTGYAQNFQGRVTMTWNTSISTAYMELSSLRSEDTAVYYCARRRVGVYYYGMDVWGQGTTVTVSS VL: ENVLTQSPGTLSLSPGERATLSCRASQSVSSSYFGWYQQKPGQAPRLLIYGASSRATGIPDRFSGSGSGTDFTLTISRLEPEDFAVYYCQQYGSSPITFGQGTRLEIKR
4 | no binding (tested: 100 nM) | no binding (tested: 100 nM) | 1.98 nM | 24200 MFI | no binding (tested: 100 nM) | PR301286 (antibody, human IgG1, kappa, V domains shown, Parent of the PTM variants PR301286-1, -3, -5, -6, -7) VH: QVQLVESGGGVVQPGKSLRLSCAASGFTFSSYGMHWVRQAPGKGLEWVAVIWIDGSNRYYAASVKGRFTISRDNSKNTLYLQMNSLRAEDTAVYYCTRGYGDYAYVMDVWGQGASVTVSS VL: DIVMTQSPLSLPVTPGEPASISCRSSQSLLPGNGYNYLDWYLQKPGQSPQLLIYLGSNRASGVPDRFSGSGSGTDFTLKISRVEAEDVGIYYCMQALQSPLTFGGGTKVEIKR
